Here are results for 1 molecule from PMC4271445.

The target of the test is Nullbasic-FLAG-V5-6xHis (HIV-1). Kind of test: BLI. Background: In BLI a coated tip is dipped into the sample, and binding shifts an interference pattern.

B1: Myc-DDK-tagged DDX1 (natural protein)
chain: MAAFSEMGVMPEIAQAVEEMDWLLPTDIQAESIPLILGGGDVLMAAETGSGKTGAFSIPVIQIVYETLKDQQEGKKGKTTIKTGASVLNKWQMNPYDRGSAFAIGSDGLCCQSREVKEWHGCRATKGLMKGKHYYEVSCHDQGLCRVGWSTMQASLDLGTDKFGFGFGGTGKKSHNKQFDNYGEEFTMHDTIGCYLDIDKGHVKFSKNGKDLGLAFEIPPHMKNQALFPACVLKNAELKFNFGEEEFKFPPKDGFVALSKAPDGYIVKSQHSGNAQVTQTKFLPNAPKALIVEPSRELAEQTLNNIKQFKKYIDNPKLRELLIIGGVAARDQLSVLENGVDIVVGTPGRLDDLVSTGKLNLSQVRFLVLDEADGLLSQGYSDFINRMHNQIPQVTSDGKRLQVIVCSATLHSFDVKKLSEKIMHFPTWVDLKGEDSVPDTVHHVVVPVNPKTDRLWERLGKSHIRTDDVHAKDNTRPGANSPEMWSEAIKILKGEYAVRAIKEHKMDQAIIFCRTKIDCDNLEQYFIQQGGGPDKKGHQFSCVCLHGDRKPHERKQNLERFKKGDVRFLICTDVAARGIDIHGVPYVINVTLPDEKQNYVHRIGRVGRAERMGLAISLVATEKEKVWYHVCSSRGKGCYNTRLKEDGGCTIWYNEMQLLSEIEEHLNCTISQVEPDIKVPVDEFDGKVTYGQKRAAGGGSYKGHVDILAPTVQELAALEKEAQTSFLHLGYLPNQLFRTF
One may read the Kd as the free concentration of one partner at which half of the binding sites on the other are occupied at equilibrium, for simple one-to-one binding. High values mean lower affinity, low ones higher affinity. Take B1: the dissociation constant (Kd) is 6 nM.
